We go through two molecules from paper PMC11035697, “Phosphorylation of the F-BAR protein Hof1 drives septin ring splitting in budding yeast” (Nature Communications, 2024).

The target in data set [1] is T1, eGFP-tagged Cdc11-capped septin octamer (S. cerevisiae, UniProt P32458 1-415; P32468 1-407; P32457 1-520; P25342 1-322).
T1 construct: septin Cdc11, yeast; septin Cdc12, yeast; septin Cdc3, yeast; septin Cdc10, yeast; Always used as a 1:1 mix with the untagged octamer in the fluorescence experiments; also called eGFP-labelled septin octamers; GFP-tagged septin octamers; source: E. coli BL21 (DE3) Rosetta, co-expressed from pFM453 and pFM873, purified (amylose, thrombin cleavage of MBP, Ni-NTA); not shown: MBP, N-terminal, …
The data set can be described thus: fluorescence microscopy of purified proteins (colocalisation on septin bundles); 1:1 mix of eGFP-tagged and untagged septin octamers (50 nM) on PI(4,5)P2-containing supported lipid bilayers in 20 mM Tris-Cl pH 8, 30 mM NaCl, 2 mM MgCl2, GTP; Hof1-BFP mixed 1:4 with untagged Hof1 added; spinning disk microscopy. The conditions noted are these: both partners purified.

Data set [2] deals with the molecule itself. The data set can be described thus: negative-stain transmission electron microscopy; septin octamers diluted in low salt buffer (20 mM Tris-Cl pH 8, 30 mM NaCl, 2 mM MgCl2, 40 µM GTP), polymerised at least 30 min at 4 °C, 180 nM final; 1% uranyl acetate; octamers to filaments.

B1: MBP-Hof1-BFP-6His (natural protein, S. cerevisiae, UniProt Q05080 1-669, looked up)
chain: MSYSYEACFWDPNDNGVNILLGHISQGIRSCDSMILFFKQRSELEKDYARRLGAITGKLDKDIGTNMDYGKLNETFNVVLSVEKARAQSHSKQSEILFRQIYTDTKAFAANLQARYTTLSGKIERLRMDKFNKKKGCEVLQKKLQDAQIRFRDLQLNENNMIGAKRVEHNKRELLKWESNSQEYKVQLDVLKQEYKASQKFWIHEWAQLSCELQEMENARISFLQSKLQQFATSSMETYILEQTKMDMLTNHLNSFTAADEISTFSKENGTGRLKHKTSKGDMNSSANWAQMSSISTTSKKTESYMDNIRKLSSQLKETENKRKLASIDKYEKPLPSPEVTMATQFRNSTPVIRNETKVVANPTLSLRSSPVQLQSNVDDSVLRQKPDKPRPIVGEEQLKPDEDSKNPDEKGLMVHKRNQSLSSPSESSSSNPTDFSHIKKRQSMESMTTSVSSMANSIDDSQRFAKSWNSSNRKRKSMSHLQVPSSASSRSDDGGRTPNSAHNLNEDDYNTRRDTSTSTILFKPPVAVRGTSRGHTHRQSMIMQDSSNPIEDALYEMERIQSSSKPGTKTGNIMDERGVVRDRGITVTLPIVTSEGFPVIEYAKAMYPLIGNEAPGLANFHKGDYLLITEIVNKDWYKGEVYDNDRIDRNHRIGLIPYNFIQLLHQGL
notes: F-BAR protein Hof1, S. cerevisiae, residues 1-669 (mTagBFP fragment cloned into pBG2163); BFP amplified from pHPOM1-mTagBFP2; also called Hof1 tagged with blue fluorescent protein; pSP1950; source: E. coli BL21 (DE3) Rosetta, purified (Ni-NTA, amylose); not shown: MBP, N-terminal, kept; mTagBFP, C-terminal, kept
As for B1, the binding result in data set [1] is “binds”.

B2: Cdc11-Cdc12-Cdc3-Cdc10-Cdc10-Cdc3-Cdc12-Cdc11 septin octamer (complex, S. cerevisiae)
chain 1: MSGIIDASSALRKRKHLKRGITFTVMIVGQSGSGRSTFINTLCGQQVVDTSTTILLPTDTSTEIDLQLREETVELEDDEGVKIQLNIIDTPGFGDSLDNSPSFEIISDYIRHQYDEILLEESRVRRNPRFKDGRVHCCLYLINPTGHGLKEIDVEFIRQLGSLVNIIPVISKSDSLTRDELKLNKKLIMEDIDRWNLPIYNFPFDEDEISDEDYETNMYLRTLLPFAIIGSNEVYEMGGDVGTIRGRKYPWGILDVEDSSISDFVILRNALLISHLHDLKNYTHEILYERYRTEALSGESVAAESIRPNLTKLNGSSSSSTTTRRNTNPFKQSNNINNDVLNPASDMHGQSTGENNETYMTREEQIRLEEERLKAFEERVQQELLLKRQELLQREKELREIEARLEKEAKIKQEE
chain 2: MSAATATAAPVPPPVGISNLPNQRYKIVNEEGGTFTVMLCGESGLGKTTFINTLFQTVLKRADGQQHRQEPIRKTVEIDITRALLEEKHFELRVNVIDTPGFGDNVNNNKAWQPLVDFIDDQHDSYMRQEQQPYRTKKFDLRVHAVLYFIRPTGHGLKPIDIETMKRLSTRANLIPVIAKADTLTAQELQQFKSRIRQVIEAQEIRIFTPPLDADSKEDAKSGSNPDSAAVEHARQLIEAMPFAIVGSEKKFDNGQGTQVVARKYPWGLVEIENDSHCDFRKLRALLLRTYLLDLISTTQEMHYETYRRLRLEGHENTGEGNEDFTLPAIAPARKLSHNPRYKEEENALKKYFTDQVKAEEQRFRQWEQNIVNERIRLNGDLEEIQGKVKKLEEQVKSLQVKKSHLK
chain 3: MSLKEEQVSIKQDPEQEERQHDQFNDVQIKQESQDHDGVDSQYTNGTQNDDSERFEAAESDVKVEPGLGMGITSSQSEKGQVLPDQPEIKFIRRQINGYVGFANLPKQWHRRSIKNGFSFNLLCVGPDGIGKTTLMKTLFNNDDIEANLVKDYEEELANDQEEEEGQGEGHENQSQEQRHKVKIKSYESVIEENGVKLNLNVIDTEGFGDFLNNDQKSWDPIIKEIDSRFDQYLDAENKINRHSINDKRIHACLYFIEPTGHYLKPLDLKFMQSVYEKCNLIPVIAKSDILTDEEILSFKKTIMNQLIQSNIELFKPPIYSNDDAENSHLSERLFSSLPYAVIGSNDIVENYSGNQVRGRSYPWGVIEVDNDNHSDFNLLKNLLIKQFMEELKERTSKILYENYRSSKLAKLGIKQDNSVFKEFDPISKQQEEKTLHEAKLAKLEIEMKTVFQQKVSEKEKKLQKSETELFARHKEMKEKLTKQLKALEDKKKQLELSINSASPNVNHSPVPTKKKGFLR
chain 4: MDPLSSVQPASYVGFDTITNQIEHRLLKKGFQFNIMVVGQSGLGKSTLINTLFASHLIDSATGDDISALPVTKTTEMKISTHTLVEDRVRLNINVIDTPGFGDFIDNSKAWEPIVKYIKEQHSQYLRKELTAQRERFITDTRVHAILYFLQPNGKELSRLDVEALKRLTEIANVIPVIGKSDTLTLDERTEFRELIQNEFEKYNFKIYPYDSEELTDEELELNRSVRSIIPFAVVGSENEIEINGETFRGRKTRWSAINVEDINQCDFVYLREFLIRTHLQDLIETTSYIHYEGFRARQLIALKENANSRSSAHMSSNAIQR
notes: septin Cdc11, yeast; septin Cdc12, yeast; septin Cdc3, yeast; septin Cdc10, yeast; also called Cdc11-capped septin octamers; recombinant septin octamers; source: E. coli BL21 (DE3) Rosetta, co-expressed from pFM453 and pFM455, purified (amylose, thrombin cleavage of MBP, Ni-NTA); not shown: MBP, N-terminal, cleaved; His6, N-terminal, kept; copies: 2 + 2 + 2 + 2
As for B2, the binding result in data set [2] is recorded as “binds”.
